Test results from patent US20140186354A1 (published 2014).

Experiments:
HER3 ECD-HRG complex = molecular target: T1, HER3 ECD-HRG complex (human, UniProt P21860 20-643); test: SPR Biacore T100
T1 construct: HER3 ECD pre-incubated with a 5-fold molar excess of Heregulin (open conformation); also called Her-3 ECD/Heregulin complex

HER4 ECD-HRG complex = molecular target: T2, HER4 ECD-HRG complex (human, UniProt Q15303 26-651); test: SPR Biacore T100
T2 construct: HER4 ECD pre-incubated with a 5-fold molar excess of Heregulin; also called Her-4 ECD/Heregulin complex
T2 sequence 1: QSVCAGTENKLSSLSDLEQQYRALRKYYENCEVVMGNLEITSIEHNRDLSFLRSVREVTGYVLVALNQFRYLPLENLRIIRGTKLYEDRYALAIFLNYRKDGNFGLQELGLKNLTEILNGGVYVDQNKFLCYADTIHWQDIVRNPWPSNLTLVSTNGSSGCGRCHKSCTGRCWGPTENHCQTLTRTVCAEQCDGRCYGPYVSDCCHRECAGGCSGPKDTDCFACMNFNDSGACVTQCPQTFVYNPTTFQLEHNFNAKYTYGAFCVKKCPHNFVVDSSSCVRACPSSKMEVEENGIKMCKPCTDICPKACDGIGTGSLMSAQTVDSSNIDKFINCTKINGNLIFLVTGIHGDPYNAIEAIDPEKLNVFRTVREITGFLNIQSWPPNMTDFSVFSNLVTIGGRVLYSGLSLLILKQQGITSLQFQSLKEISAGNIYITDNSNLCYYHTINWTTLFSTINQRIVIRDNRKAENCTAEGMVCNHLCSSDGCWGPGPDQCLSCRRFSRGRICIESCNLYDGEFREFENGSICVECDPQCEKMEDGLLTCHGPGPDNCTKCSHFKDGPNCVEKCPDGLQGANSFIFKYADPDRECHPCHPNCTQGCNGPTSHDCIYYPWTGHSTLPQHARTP
T2 sequence 2: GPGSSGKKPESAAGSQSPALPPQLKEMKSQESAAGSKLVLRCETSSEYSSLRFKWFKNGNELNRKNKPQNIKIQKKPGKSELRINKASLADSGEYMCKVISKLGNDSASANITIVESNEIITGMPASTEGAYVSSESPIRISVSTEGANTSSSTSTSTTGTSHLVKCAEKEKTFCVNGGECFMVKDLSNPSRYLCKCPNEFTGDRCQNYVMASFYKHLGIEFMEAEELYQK

[1] = molecular target: T3, human recombinant HER3 ECD (human, UniProt P21860 20-643); test: complex formed in solution before SPR
T3 construct: 68 kDa; without ligand said to be in the closed conformation; also called human-Her3-ECD

[2] = molecular target: T4, human recombinant HER4 ECD (human, UniProt Q15303 26-651); test: complex formed in solution before SPR
T4 sequence: T2 sequence 1

T1 sequence (P21860 20-643 limits assumed, one chain of several): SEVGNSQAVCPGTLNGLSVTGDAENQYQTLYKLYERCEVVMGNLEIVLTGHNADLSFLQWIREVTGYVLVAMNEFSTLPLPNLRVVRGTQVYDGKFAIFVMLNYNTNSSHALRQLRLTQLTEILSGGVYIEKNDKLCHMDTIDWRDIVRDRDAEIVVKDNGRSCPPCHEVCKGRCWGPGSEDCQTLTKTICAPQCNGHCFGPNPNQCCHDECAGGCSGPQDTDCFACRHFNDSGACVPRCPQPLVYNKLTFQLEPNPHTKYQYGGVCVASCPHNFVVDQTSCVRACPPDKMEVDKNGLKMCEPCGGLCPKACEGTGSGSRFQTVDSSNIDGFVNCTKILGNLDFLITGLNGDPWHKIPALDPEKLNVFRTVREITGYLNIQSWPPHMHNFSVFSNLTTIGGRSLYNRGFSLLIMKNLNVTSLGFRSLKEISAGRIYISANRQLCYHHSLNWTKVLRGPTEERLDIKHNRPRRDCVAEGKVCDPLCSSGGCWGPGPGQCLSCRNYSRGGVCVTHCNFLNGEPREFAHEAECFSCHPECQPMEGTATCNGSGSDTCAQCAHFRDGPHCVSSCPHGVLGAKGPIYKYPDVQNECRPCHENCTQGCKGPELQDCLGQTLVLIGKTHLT
T3 sequence (P21860 20-643): as the sequence (P21860 20-643 limits assumed, one chain of several) above

B1: anti-HER3/HER4 antibody M-05-74 (antibody, V domains shown)
VH: QVQLQQSGAELAKPGASVKMSCKTSGYTLTDYWIHWVKQRPGQGLEWIGYINPYTGYTESNQKFKDKATLTADKSSNTAYIQLSSLTSEDSAVYYCARPYYYGDYWGQGTTLTVSS
VL: QIVLTQSPAIMSASPGERVTITCSASSSVSYMHWFQQKPGTSPKLLIYSTSNLASGVPARFSGSGSGTSYSLTISRMEAEDAATYYCQQRSSYPFTFGSGTKLEIK
notes: Murine monoclonal antibody from hybridoma (supernatant or purified full length); also called M-074; M-5-74
HER3 ECD-HRG complex
  ratio Ka(+Heregulin)/Ka(-Heregulin), against HER3-ECD: 4.85
  ratio MR(+Heregulin)/MR(-Heregulin), against HER3-ECD: 3
HER4 ECD-HRG complex
  ratio Ka(+Heregulin)/Ka(-Heregulin), against HER4-ECD: 23.9
  ratio MR(+Heregulin)/MR(-Heregulin), against HER4-ECD: 6

B2: Recombinant Human Heregulin fragment (HRG) (ligand)
chain: T2 sequence 2
notes: also called Heregulin beta (HRG)
[1]
  binding result: binds
[2]
  binding result: binds
